According to patent US20230374132A1 (Innovent, published 2023):
Substitutions are numbered along the chain they refer to. Names and notes keep the numbering of the source. One block for each binder: values may come before it.

Assays:
[1] = biological target: T1, human CD3 E&D complex protein (Sino Biological Inc., CT026H0323H) (human, UniProt P07766 23-126; P04234 22-105); assay: BLI, antibody on sensor
T1 construct: bought heterodimer; also called human CD3 protein (CT026H0323H)

[2] = biological target: T2, human CD3E&G complex (Sino Biological Inc., CT041-H0305H) (human, UniProt P07766 23-126; P09693 23-116); assay: BLI, antibody on sensor
T2 construct: bought heterodimer; also called human CD3E&G antigen
T2 sequence (P07766 23-126, chain 1 of 2): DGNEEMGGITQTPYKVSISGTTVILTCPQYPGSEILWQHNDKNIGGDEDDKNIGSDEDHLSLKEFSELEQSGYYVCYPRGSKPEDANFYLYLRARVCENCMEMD
T2 sequence (P09693 23-116, chain 2 of 2): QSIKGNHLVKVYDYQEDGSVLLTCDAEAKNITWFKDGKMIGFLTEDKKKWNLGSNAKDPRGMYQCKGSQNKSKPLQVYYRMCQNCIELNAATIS

T1 sequence (P07766 23-126, chain 1 of 2): as the sequence (P07766 23-126, chain 1 of 2) above
T1 sequence (P04234 22-105, chain 2 of 2): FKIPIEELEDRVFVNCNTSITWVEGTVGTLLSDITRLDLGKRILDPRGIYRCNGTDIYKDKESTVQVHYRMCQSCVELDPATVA

Kd [1]: 1.35 nM | koff [1]: 0.0003 s⁻¹ | kon [1]: 223000 M⁻¹ s⁻¹ | Kd [2]: 8.97 nM | koff [2]: 0.00224 s⁻¹ | kon [2]: 250000 M⁻¹ s⁻¹
B1: hzsp34.78 (antibody, human IgG1, lambda, L234A L235A, V domains shown)
VH: EVQLVESGGGLVQPGGSLKLSCAASGFTFGTYAMNWVRQASGKGLEWVGRIRSKYNNYATYYADSVKDRFTISRDDSKSTLYLQMNSLKTEDTAVYYCARHGNFGQSYVSWFAYWGQGTTVTVSS
VL: QAVVTQEPSLTVSPGGTVTLTCRSSTGAVTTSNYANWVQQKPGQAPRGLIGGTNKRAPGVPARFSGSLLGDKAALTLLGAQPEDEAEYYCALWYSNLWVFGQGTKLTVLG
notes: CDR mutant of hzsp34.24; IgG1 L234A L235A, lambda

Kd [1]: 0.977 nM | koff [1]: 0.0002 s⁻¹ | kon [1]: 205000 M⁻¹ s⁻¹ | Kd [2]: 4.63 nM | koff [2]: 0.000821 s⁻¹ | kon [2]: 177000 M⁻¹ s⁻¹
B2: hzsp34.94 (antibody, human IgG1, lambda, L234A L235A, V domains shown)
VH: B1 VH with G30N, V109A
VL: B1 VL
notes: as for B1

Kd [1]: 9.63 nM | koff [1]: 0.0011 s⁻¹ | kon [1]: 114000 M⁻¹ s⁻¹ | binding result [2]: no binding
B3: hzsp34.99 (antibody, human IgG1, lambda, L234A L235A, V domains shown)
VH: B1 VH with G30N, F104A, G105Y
VL: B1 VL
notes: as for B1

Kd [1]: 6.55 nM | koff [1]: 0.00147 s⁻¹ | kon [1]: 225000 M⁻¹ s⁻¹ | Kd [2]: 15.4 nM | koff [2]: 0.00213 s⁻¹ | kon [2]: 138000 M⁻¹ s⁻¹
B4: hzsp34.80 (antibody, human IgG1, lambda, L234A L235A, V domains shown)
VH: B1 VH with G30N, Y32A
VL: B1 VL
notes: as for B1

Kd [1]: 9.15 nM | koff [1]: 0.00184 s⁻¹ | kon [1]: 201000 M⁻¹ s⁻¹ | binding result [2]: no binding
B5: hzsp34.98 (antibody, human IgG1, lambda, L234A L235A, V domains shown)
VH: B1 VH with G30N, G102Y, N103G
VL: B1 VL
notes: as for B1

Kd [1]: 0.976 nM | koff [1]: 0.00026 s⁻¹ | kon [1]: 266000 M⁻¹ s⁻¹ | Kd [2]: 3.42 nM | koff [2]: 0.000836 s⁻¹ | kon [2]: 245000 M⁻¹ s⁻¹
B6: hzsp34.93 (antibody, human IgG1, lambda, L234A L235A, V domains shown)
VH: B1 VH with G30N, Y108A
VL: B1 VL
notes: as for B1

Kd [1]: 4.55 nM | koff [1]: 0.000797 s⁻¹ | kon [1]: 175000 M⁻¹ s⁻¹ | Kd [2]: 15.8 nM | koff [2]: 0.00205 s⁻¹ | kon [2]: 130000 M⁻¹ s⁻¹
B7: hzsp34.88 (antibody, human IgG1, lambda, L234A L235A, V domains shown)
VH: B1 VH with G30N, N103G
VL: B1 VL
notes: as for B1

Kd [1]: 7.69 nM | koff [1]: 0.00143 s⁻¹ | kon [1]: 186000 M⁻¹ s⁻¹ | Kd [2]: 11.1 nM | koff [2]: 0.00157 s⁻¹ | kon [2]: 142000 M⁻¹ s⁻¹
B8: hzsp34.81 (antibody, human IgG1, lambda, L234A L235A, V domains shown)
VH: B1 VH with G30N, R52S
VL: B1 VL
notes: as for B1

Kd [1]: 0.812 nM | koff [1]: 0.0002 s⁻¹ | kon [1]: 246000 M⁻¹ s⁻¹ | Kd [2]: 4.89 nM | koff [2]: 0.00114 s⁻¹ | kon [2]: 233000 M⁻¹ s⁻¹
B9: hzsp34.84 (antibody, human IgG1, lambda, L234A L235A, V domains shown)
VH: B1 VH with G30N, N56G
VL: B1 VL
notes: as for B1

Kd [1]: 1.34 nM | koff [1]: 0.000325 s⁻¹ | kon [1]: 243000 M⁻¹ s⁻¹ | Kd [2]: 7.57 nM | koff [2]: 0.00191 s⁻¹ | kon [2]: 253000 M⁻¹ s⁻¹
B10: hzsp34.103 (antibody, human IgG1, lambda, L234A L235A, V domains shown)
VH: B1 VH with G30N
VL: B1 VL with T30G
notes: as for B1

Kd [1]: 0.507 nM | koff [1]: 0.000118 s⁻¹ | kon [1]: 233000 M⁻¹ s⁻¹ | Kd [2]: 6.36 nM | koff [2]: 0.00154 s⁻¹ | kon [2]: 242000 M⁻¹ s⁻¹
B11: hzsp34.79 (antibody, human IgG1, lambda, L234A L235A, V domains shown)
VH: B1 VH with G30N, T31G
VL: B1 VL
notes: as for B1

Kd [1]: 0.772 nM | koff [1]: 0.0002 s⁻¹ | kon [1]: 259000 M⁻¹ s⁻¹ | Kd [2]: 4.82 nM | koff [2]: 0.00101 s⁻¹ | kon [2]: 210000 M⁻¹ s⁻¹
B12: hzsp34.92 (antibody, human IgG1, lambda, L234A L235A, V domains shown)
VH: B1 VH with G30N, S107R
VL: B1 VL
notes: as for B1

Kd [1]: 6.62 nM | koff [1]: 0.00094 s⁻¹ | kon [1]: 142000 M⁻¹ s⁻¹ | Kd [2]: 13.8 nM | koff [2]: 0.00282 s⁻¹ | kon [2]: 205000 M⁻¹ s⁻¹
B13: hzsp34.89 (antibody, human IgG1, lambda, L234A L235A, V domains shown)
VH: B1 VH with G30N, F104A
VL: B1 VL
notes: as for B1

Kd [1]: 1.32 nM | koff [1]: 0.000304 s⁻¹ | kon [1]: 230000 M⁻¹ s⁻¹ | Kd [2]: 8.08 nM | koff [2]: 0.00201 s⁻¹ | kon [2]: 249000 M⁻¹ s⁻¹
B14: hzsp34.85 (antibody, human IgG1, lambda, L234A L235A, V domains shown)
VH: B1 VH with G30N, N57G
VL: B1 VL
notes: as for B1

Kd [1]: 0.88 nM | koff [1]: 0.000152 s⁻¹ | kon [1]: 173000 M⁻¹ s⁻¹ | Kd [2]: 6.06 nM | koff [2]: 0.000997 s⁻¹ | kon [2]: 165000 M⁻¹ s⁻¹
B15: hzsp34.87 (antibody, human IgG1, lambda, L234A L235A, V domains shown)
VH: B1 VH with G30N, G102Y
VL: B1 VL
notes: as for B1

Kd [1]: 3.77 nM | koff [1]: 0.00082 s⁻¹ | kon [1]: 217000 M⁻¹ s⁻¹ | Kd [2]: 4.3 nM | koff [2]: 0.000636 s⁻¹ | kon [2]: 148000 M⁻¹ s⁻¹
B16: hzsp34.101 (antibody, human IgG1, lambda, L234A L235A, V domains shown)
VH: B1 VH with G30N, Y108A, V109A
VL: B1 VL
notes: as for B1

Kd [1]: 1.39 nM | koff [1]: 0.000354 s⁻¹ | kon [1]: 255000 M⁻¹ s⁻¹ | Kd [2]: 6.61 nM | koff [2]: 0.00144 s⁻¹ | kon [2]: 219000 M⁻¹ s⁻¹
B17: hzsp34.86 (antibody, human IgG1, lambda, L234A L235A, V domains shown)
VH: B1 VH with G30N, H101A
VL: B1 VL
notes: as for B1

Kd [1]: 0.928 nM | koff [1]: 0.0002 s⁻¹ | kon [1]: 216000 M⁻¹ s⁻¹ | Kd [2]: 3.6 nM | koff [2]: 0.000791 s⁻¹ | kon [2]: 220000 M⁻¹ s⁻¹
B18: hzsp34.83 (antibody, human IgG1, lambda, L234A L235A, V domains shown)
VH: B1 VH with G30N, Y55A
VL: B1 VL
notes: as for B1

Kd [1]: 10.3 nM | koff [1]: 0.00168 s⁻¹ | kon [1]: 163000 M⁻¹ s⁻¹ | Kd [2]: 12 nM | koff [2]: 0.00191 s⁻¹ | kon [2]: 159000 M⁻¹ s⁻¹
B19: hzsp34.82 (antibody, human IgG1, lambda, L234A L235A, V domains shown)
VH: B1 VH with G30N, S53L
VL: B1 VL
notes: as for B1

Kd [1]: 1.69 nM | koff [1]: 0.000423 s⁻¹ | kon [1]: 250000 M⁻¹ s⁻¹ | Kd [2]: 8.52 nM | koff [2]: 0.0019 s⁻¹ | kon [2]: 222000 M⁻¹ s⁻¹
B20: hzsp34.102 (antibody, human IgG1, lambda, L234A L235A, V domains shown)
VH: B1 VH with G30N
VL: B1 VL with R23G
notes: as for B1

Kd [1]: 1.88 nM | koff [1]: 0.000528 s⁻¹ | kon [1]: 280000 M⁻¹ s⁻¹ | Kd [2]: 8.53 nM | koff [2]: 0.00195 s⁻¹ | kon [2]: 228000 M⁻¹ s⁻¹
B21: hzsp34.91 (antibody, human IgG1, lambda, L234A L235A, V domains shown)
VH: B1 VH with G30N, Q106G
VL: B1 VL
notes: as for B1

Kd [1]: 1.13 nM | koff [1]: 0.000276 s⁻¹ | kon [1]: 243000 M⁻¹ s⁻¹ | Kd [2]: 8.33 nM | koff [2]: 0.00171 s⁻¹ | kon [2]: 205000 M⁻¹ s⁻¹
B22: hzsp34.100 (antibody, human IgG1, lambda, L234A L235A, V domains shown)
VH: B1 VH with G30N, Q106G, S107R
VL: B1 VL
notes: as for B1
